According to patent US12551573B2, “Compositions and methods for the targeting of PCSK9” (Scribe Therapeutics Inc., priority 2022, dated 2026):

B1: DOMAIN_23679 (protein, listed as Tupaia chinensis)
chain: MAFEDVAVYFSREEWELLDTAQRALYRHVMLENFALVASLGFSPSRPCVVIQLESGKEPWLHSGMDTTMSRHAHKRPSSGS
B2: DOMAIN_25565 (protein, listed as Muntiacus reevesi)
chain: LPLTFEDVAVYFSEQEWQNLEAWQKELYKQVMRANYEILLSLDNGLPKPELISWIEQGKELFKKWGESQQSRSIICSSADL
B3: DOMAIN_22778 (protein, listed as Saimiri boliviensis)
chain: SQGSVSFKDVTVDFTQEEWQQLDPAQKALYRDVMLENYCHFIAVGFHMTKPDMIRKLEQGEELWTQRIFPSYSYLEEDGKT
B4: DOMAIN_22459 (protein, listed as Monodelphis domestica)
chain: SQGPVKFEDVAIYLWKEEWELMDSTQKRLYRQVMLETYENVLSVGTPHDKPAMIVHLEQGETAWSPALQRPGKEKGRLHGH
B5: DOMAIN_25682 (protein, listed as Rhinopithecus bieti)
chain: PRLPLTFEDVAIYFSEQEWQDLEAWQKELYKHVMRSNYETLVSLDDGLPKPELISWIEHGGEPFRNWRESQKSRNIICSSS
B6: DOMAIN_22278 (protein, listed as Pteropus vampyrus)
chain: KPEDVSFAEVAVYFSLDEWGYLWPAQRALYRDVMRETYGHFGELGFPGPKPALISWMEQESEAWSPAAQDPEEGESVGGAV
B7: DOMAIN_21909 (protein, listed as Suricata suricatta)
chain: AHHLVMFRDVAVDFSQDEWECLNSYQRNLYRDVILENYSNLVSVAGCSISKPDVITLLEQGREPWMVVRDERRRRTLDLES
B8: DOMAIN_22495 (protein, listed as Callorhinus ursinus)
chain: CEGLVSFEDVTMDFSREEWQQLDPAQRCLYWDVMLEIYSHLLSVGYHIPNPEIISRMEKGKKSWIRGAQLPHQRHREVVFG
B9: DOMAIN_23113 (protein, listed as Camelus ferus)
chain: GSVCEVSVSFEDVTVDFSREEWQHLDPAQRRLYWDVTLENYSHLCSVGYQVPKPEVIFKLEQGEGPWTLEEETPHQSCSGA
B10: DOMAIN_23856 (protein, listed as Erinaceus europaeus)
chain: SLGMVSFDDVMVTFSLEEWQLLSTSQRTLYRTVMLDTYSSLAALGHCAVKPGVIIKLEQGAEPWMGAQAPPRSLSDPCGPS
B11: DOMAIN_24903 (protein, listed as Ailuropoda melanoleuca)
chain: EMEPHSHAVPCQPSMSFKDVAVTFTQEEWGQLNLAQRRLYRNVTLETWSHLVSLGLLLSKPDVISWLEQGQDPWRAEQGPP
B12: DOMAIN_22586 (protein)
chain: FQASVSFQDVTVEFSQEEWQHLGPVERTLYRDVMLENYSHLVSVGYCFTKPELIFTLEQGEDPWLLEKEKGFLSRNSPEDS
modifications: Nomascus leucogenys
B13: DOMAIN_22311 (protein, listed as Monodelphis domestica)
chain: AQEVVSFKDVAVDFTREEWRLLSPPQKELYKEVMLENARNLLSVGLSAPPEDMFSSLEQREAPWMLEKDDLRSCCPEGKMR
B14: DOMAIN_25235 (protein, listed as Oryctolagus cuniculus)
chain: LPGLMAFEDVAVYFSQEEWGLLDAVQRALYRHVMLENFALVASLGLSASPPHVVIQLQRGEEPWVPSGLDMTSARNGHRRP
B15: DOMAIN_25671 (protein, listed as Muntiacus reevesi)
chain: GLLSFEDVALYFTREEWDTLDWAQKALYRDVMLDNYRHIVSLGFPFPKPEVICQLEQWEEPWTLDLPRAGTRKASGSACPD
B16: DOMAIN_24446 (protein, listed as Propithecus coquereli)
chain: SQGLVSFKDVAVDFTQDEWQQLDPAQRTLYRDVMLENYSHLVSMGYPVSKPDVISKLEQGEDPWIIKRDISNWIYPDENQA
B17: DOMAIN_22375 (protein, listed as Tursiops truncatus)
chain: PQGCAISEDVFVYFSREEWVLLDEDQRLLYRDVMLENFALLASLGITSSRSYLVTQLEQGEEPWMPAQVDMTAATEKEAQK
B18: DOMAIN_22917 (protein, listed as Cervus elaphus)
chain: MAFEDVAVHFSQEEWGLLDTAQRSLYRRVMLENFALLASLGLSVSRPHVVTQLERGEEPWVLSGVDVTLPRDAQRRPHRGS
B19: DOMAIN_23018 (protein, listed as Colobus angolensis)
chain: AQMLVTFKDVAVTFTQEEWRQLDLTQRTLYREVMLETCGLLVSLGHRVPKPELVHLLEHGQELWTVKTGLSQPTCAGDRTQ
B20: DOMAIN_25973 (protein, listed as Geotrypetes seraphini)
chain: ARAPVSFEEVAVYFSPEEWQTLQGWQKEMYRGVMRENYEIMLSLGYQFSKPEILLMMERGEEPCVEDCQRRIPVTFREKHL
B21: DOMAIN_25686 (protein, listed as Panthera pardus)
chain: PRVSLTFEDVAVLFTRDEWRKLGPSERNLYQDVMLENYSNLVSLGLLFSKPKVISLLQQGEDPWKVEKESPGGPSLGYKSS
B22: DOMAIN_24204 (protein, listed as Propithecus coquereli)
chain: SLGSVSFKDVTVDFSREEWQQLDLAQKSLYRDVTLENYFNLISVGCQVPKPEVIFNLEQGGELCVLDGGLSCQNCSDGDIG
B23: DOMAIN_23454 (protein, listed as Carlito syrichta)
chain: GKALLSFEDVAMYFTREEWNHLDWAQKDLYRDVMLENYMNMVLLGFQFPKPEVICQLENWDEPWILDLPRAGNRKASSSAC
B24: DOMAIN_22919 (protein, listed as Colobus angolensis)
chain: KPGTVSFADVAVYFSREEWGYLRPAQRALYRDVMRETYCHLGALGVGGSKPALISWVEEEAELWDPAARDPEVTKGLTETD
B25: DOMAIN_21583 (protein, listed as Sarcophilus harrisii)
chain: ALESVTFQDVAVNFTHEEWGHLKPAQKDLYREVMMENYQNFVSLGLPFSKPHVISQLEKGEAPWITEKASLVPRVSCQDFF
B26: DOMAIN_23331 (protein, listed as Carlito syrichta)
chain: LQELLSFEDLSVDFTQKEWQLLNPYQKNLYKDVMLENYSSLVSLGYEVIKPDVIFKLEQGEEPWIRDAEMPSSPSLEVWQV
B27: DOMAIN_24615 (protein, listed as Colobus angolensis)
chain: TEGLVMFEDVAVYFSREEWGLLNVTQKGLYQDVMLENFALVSSLGLAPLRSPVFSQLENDEQLWVPSWVDETPVSRAEARR
B28: DOMAIN_23281 (protein, listed as Colobus angolensis)
chain: CWGLLSFKDISMEFTWDEWQLLDSTQKYLYRDVILENYHNLISVGYHGTKPDLIFKLEQGEDPWIINAKISRQSRPDGWEE
B29: DOMAIN_22483 (protein, listed as Aotus trivirgatus)
chain: TQESLTLEDVAVEFSWEEWQLLDTAQKDLYRDVMVENYNHLVSLGYQTSKPDALSKLAHGQEPWMTDAKIQNKNCPGIRKV
B30: DOMAIN_24838 (protein)
chain: FQASVSFKDVTVELTQEEWQQMGPLQRTLYRDVMLENYNNLVSVGSCIYKPELIFKLEQGEEPWLLEEEFSNQSYQVLEHY
modifications: Pteropus alecto
B31: DOMAIN_23093 (protein, listed as Propithecus coquereli)
chain: ESLTLEDVAVEFTWEEWQLLGPAQKDLYWDVMLENYNHLVSLGYQASKPDALSKLAQGEEPCVIEGKIQNRNCPGIRKADS
B32: DOMAIN_25654 (protein)
chain: LWLPLTFEDIAIYFSEQEWQNLEAWQKDLYRNVMRANYEILVSLDDGLPKPELISHIEQGKELFWNLGETQKSGNIICSSA
modifications: Pteropus alecto
B33: DOMAIN_22454 (protein, listed as Monodelphis domestica)
chain: AQEVVTFKDVAVDFTREEWCLLSPPQKELYKEVMLENAQNLLSVGLPGPPEDVISYLKQRKDPWMLEQEGLRSCCPEGEIR
B34: DOMAIN_22527 (protein, listed as Tursiops truncatus)
chain: VQASLSFEDVAVHFTWEEWQLLDPSQKDLYRNVMWENYCNLVSVGYQTPKPDSFFQLEQGEPPWTVEGAGQSQTCPGTRAS
B35: DOMAIN_938 (protein, listed as Pan paniscus)
chain: MPANEDAPQPGEHGSACEVSVSFEDVTVDFSREEWQQLDSTQRRLYQDVMLENYSHLLSVGFEVPKPEVIFKLEQGEGPWT
B36: DOMAIN_731 (protein, listed as Pan paniscus)
chain: MAGEAEAQLDPSLQGLVMFEDVTVYFSREEWGLLNVTQKGLYRDVMLENFALVSSLGLAPSRSPVFTQLEDDEQSWVPSWV
B37: DOMAIN_749 (protein, listed as Pan paniscus)
chain: MGPQGARRQAFLAFGDVTVDFTQKEWRLLSPAQRALYREVTLENYSHLVSLGILHSKPELIRRLEQGEAPWGEERRRRPGP

What follows are molecules tested on HBEGF locus. Settings: high-throughput screen of dXR repression of the HBEGF gene; abundance of each domain in the library before vs after diphtheria toxin selection; listed domains met p-value <0.01 and log2(fold change) >2.
Type: cell-based, human

| Molecule | Log2 (fold change) |
| --- | --- |
| B1 | 3.7951 |
| B2 | 2.6133 |
| B3 | 3.1251 |
| B4 | 2.9261 |
| B5 | 2.5621 |
| B6 | 3.3575 |
| B7 | 3.2301 |
| B8 | 2.2623 |
| B9 | 3.4612 |
| B10 | 3.1072 |
| B11 | 3.0377 |
| B12 | 2.1811 |
| B13 | 2.9903 |
| B14 | 3.6965 |
| B15 | 3.5244 |
| B16 | 3.6312 |
| B17 | 2.5484 |

| Molecule | Log2 (fold change) |
| --- | --- |
| B18 | 3.8061 |
| B19 | 3.4177 |
| B20 | 2.7804 |
| B21 | 2.8635 |
| B22 | 3.0779 |
| B23 | 3.0632 |
| B24 | 2.8609 |
| B25 | 3.1529 |
| B26 | 2.8995 |
| B27 | 2.4075 |
| B28 | 2.5048 |
| B29 | 2.1702 |
| B30 | 2.3323 |
| B31 | 3.2165 |
| B32 | 2.2996 |
| B33 | 2.6042 |
| B34 | 2.989 |

Same assay, conditions: high-throughput screen of dXR repression of the HBEGF gene; change in abundance of each domain in the library before and after diphtheria toxin selection

| Molecule | Log2 (fold change) |
| --- | --- |
| B35 | 2.2926 |
| B36 | 2.1318 |
| B37 | 3.1162 |
